{
  "source": "paper PMC4506714",
  "key": {"RPA (RPA70-RPA32-RPA14)": {"target": "RPA (RPA70-RPA32-RPA14) (UniProt P27694;P15927;P35244 1-616;1-270;1-121)", "sequence (P27694 whole entry, chain 1 of 3)": "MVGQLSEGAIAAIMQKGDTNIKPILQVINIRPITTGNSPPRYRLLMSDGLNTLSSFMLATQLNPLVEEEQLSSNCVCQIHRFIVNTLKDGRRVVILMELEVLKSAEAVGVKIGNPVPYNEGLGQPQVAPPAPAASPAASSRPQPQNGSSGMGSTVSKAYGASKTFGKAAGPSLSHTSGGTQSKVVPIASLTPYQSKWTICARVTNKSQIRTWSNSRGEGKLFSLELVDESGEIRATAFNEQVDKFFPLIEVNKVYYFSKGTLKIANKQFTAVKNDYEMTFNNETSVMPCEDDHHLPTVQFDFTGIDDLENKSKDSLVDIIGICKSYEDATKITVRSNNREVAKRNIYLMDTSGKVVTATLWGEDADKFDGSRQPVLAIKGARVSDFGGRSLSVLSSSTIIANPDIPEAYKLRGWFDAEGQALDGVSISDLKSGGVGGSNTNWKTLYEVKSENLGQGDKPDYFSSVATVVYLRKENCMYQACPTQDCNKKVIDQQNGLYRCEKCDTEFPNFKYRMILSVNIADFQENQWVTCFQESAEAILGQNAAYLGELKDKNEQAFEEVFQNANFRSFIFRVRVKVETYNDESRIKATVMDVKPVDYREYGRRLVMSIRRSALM", "sequence (P15927 whole entry, chain 2 of 3)": "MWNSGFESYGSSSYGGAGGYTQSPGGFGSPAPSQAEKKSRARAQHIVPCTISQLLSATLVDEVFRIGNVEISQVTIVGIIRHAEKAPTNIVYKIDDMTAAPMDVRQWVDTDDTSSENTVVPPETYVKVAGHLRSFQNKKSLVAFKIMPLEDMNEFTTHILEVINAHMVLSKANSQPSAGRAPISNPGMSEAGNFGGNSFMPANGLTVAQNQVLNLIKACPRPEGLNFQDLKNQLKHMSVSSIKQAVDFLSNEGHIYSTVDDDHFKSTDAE", "sequence (P35244 whole entry, chain 3 of 3)": "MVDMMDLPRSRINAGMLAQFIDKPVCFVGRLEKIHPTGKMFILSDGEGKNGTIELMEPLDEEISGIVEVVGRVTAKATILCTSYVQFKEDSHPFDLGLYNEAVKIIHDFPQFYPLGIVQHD", "assay": "EMSA"}, "SSB": {"target": "SSB (E. coli, UniProt P0AGE0 1-178)", "sequence (P0AGE0 whole entry)": "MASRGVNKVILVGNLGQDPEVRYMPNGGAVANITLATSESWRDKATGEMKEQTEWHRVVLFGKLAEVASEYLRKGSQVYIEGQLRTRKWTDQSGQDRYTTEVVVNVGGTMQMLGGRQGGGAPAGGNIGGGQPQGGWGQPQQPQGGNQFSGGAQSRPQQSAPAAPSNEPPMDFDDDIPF", "assay": "EMSA"}},
  "data": [
    {"binder": "TTTTTTTTTTTTTTTTTTTTTTTTTTTTTT (ssDNA)", "note": "[dT30]", "values": [
      {"measurement": "binding result", "setting": "RPA (RPA70-RPA32-RPA14)", "result": "binds"},
      {"measurement": "binding result", "setting": "SSB", "result": "binds"}
    ]}
  ]
}
